target: biotinylated recombinant SARS-CoV-2 wild type spike RBD (UniProt P0DTC2); conditions: n = 2 replicates; parent: est. 100; read off a plot

Substance	percent of parent (Relative fluorescence)
REGN10987 scFv displayed on the surface of HEK 293T cells D54F	97
REGN10987 scFv displayed on the surface of HEK 293T cells D54I	110
REGN10987 scFv displayed on the surface of HEK 293T cells D54L	130
REGN10987 scFv displayed on the surface of HEK 293T cells D54T	120
REGN10987 scFv displayed on the surface of HEK 293T cells D54Y	82
REGN10987 scFv displayed on the surface of HEK 293T cells N57H	120
REGN10987 scFv displayed on the surface of HEK 293T cells S97Y	150

target: biotinylated recombinant SARS-CoV-2 wild type spike RBD (UniProt P0DTC2); conditions: n = 2 replicates; parent: est. 100; read off a plot; remark: another data set of the same source

Substance	percent of parent (Relative fluorescence)
REGN10987 scFv displayed on the surface of HEK 293T cells L106N; N57F	120
REGN10987 scFv displayed on the surface of HEK 293T cells L106N; N57T	130

target: biotinylated recombinant SARS-CoV-2 wild type spike RBD (UniProt P0DTC2); conditions: n = four independent experiments; read off a plot

Substance	enrichment
REGN10987 scFv displayed on the surface of HEK 293T cells D54I	3.2 log2(FC)

target: biotinylated recombinant SARS-CoV-2 wild type spike RBD (UniProt P0DTC2); conditions: n = 2 replicates; parent: est. 110; read off a plot

Substance	percent of parent (Relative fluorescence)
REGN10987 scFv displayed on the surface of HEK 293T cells S97Y; D54F	100
REGN10987 scFv displayed on the surface of HEK 293T cells S97Y; D54F; N57H	110
REGN10987 scFv displayed on the surface of HEK 293T cells S97Y; D54I	220
REGN10987 scFv displayed on the surface of HEK 293T cells S97Y; D54L	220
REGN10987 scFv displayed on the surface of HEK 293T cells S97Y; D54T	220
REGN10987 scFv displayed on the surface of HEK 293T cells S97Y; D54T; N57H	240
REGN10987 scFv displayed on the surface of HEK 293T cells S97Y; D54Y	130
REGN10987 scFv displayed on the surface of HEK 293T cells S97Y; D54Y; N57H	160
REGN10987 scFv displayed on the surface of HEK 293T cells S97Y; N57H	200

From paper PMC9891525
